Reference: patent US20240343803A1 (SHANDONG SIMCERE BIOPHARMACEUTICAL, published 2024)

T1: cynomolgus monkey PVRIG (Novoprotein, Cat NO. C09B) (cynomolgus monkey, UniProt A0A2K5WVV8 41-171)
T1 construct: Bought reagent; also called cynomolgus monkey PVRIG protein
T1 sequence: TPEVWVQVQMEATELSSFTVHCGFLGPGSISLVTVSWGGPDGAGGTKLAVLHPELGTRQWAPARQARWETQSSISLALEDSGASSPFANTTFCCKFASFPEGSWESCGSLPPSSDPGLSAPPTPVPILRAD

T2: human PVRIG on FlpinCHO-PVRIG cells (human, UniProt Q6DKI7 41-326)
T2 construct: whole, on cells
T2 sequence (looked up): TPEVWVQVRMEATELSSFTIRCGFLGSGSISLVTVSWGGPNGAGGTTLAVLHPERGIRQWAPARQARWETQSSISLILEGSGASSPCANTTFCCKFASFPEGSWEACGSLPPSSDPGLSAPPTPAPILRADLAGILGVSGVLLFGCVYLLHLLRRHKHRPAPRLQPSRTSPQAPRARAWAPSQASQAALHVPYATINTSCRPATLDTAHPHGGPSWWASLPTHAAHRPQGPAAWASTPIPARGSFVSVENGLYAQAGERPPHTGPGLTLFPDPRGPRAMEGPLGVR

T3: cynomolgus monkey PVRIG on FlpinCHO-cyno PVRIG cells (cynomolgus monkey, UniProt A0A2K5WVV8 41-322)
T3 construct: whole, on cells
T3 sequence: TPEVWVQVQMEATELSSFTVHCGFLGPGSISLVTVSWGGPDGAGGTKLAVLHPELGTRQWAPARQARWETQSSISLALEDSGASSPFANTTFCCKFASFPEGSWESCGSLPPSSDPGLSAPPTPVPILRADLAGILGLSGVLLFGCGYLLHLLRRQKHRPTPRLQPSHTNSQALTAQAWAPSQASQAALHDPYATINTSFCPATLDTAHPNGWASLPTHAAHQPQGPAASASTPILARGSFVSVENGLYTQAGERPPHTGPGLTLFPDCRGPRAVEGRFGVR

T4: human PVRIG-his (AcroBiosystems, Cat NO. PVG-H52H4) (human, UniProt Q6DKI7 41-171, limits assumed)
T4 construct: Bought reagent; also called human PVRIG protein
T4 sequence (looked up): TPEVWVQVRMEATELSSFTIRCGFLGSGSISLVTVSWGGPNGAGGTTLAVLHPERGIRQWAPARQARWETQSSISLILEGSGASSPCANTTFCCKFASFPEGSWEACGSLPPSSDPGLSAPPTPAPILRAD

B1: PVRIG-A105 (Fc fusion)
chain: EVQLVESGGGLVQAGGSLRLSCAASGRTFDRHTMTWFRQAPGKEREFVATASRIPGDTYYSHSVKGRFTISRDNAKNTVYLQLNNLKPEDTAVYYCAATSAYCSEVDCYEKGSWYDNWGQGIQVTVSS
notes: Alpaca VHH joined to human IgG1 Fc (VHH-hinge-CH2-CH3); not shown: human IgG1 hinge-CH2-CH3
B2: PVRIG-A113 (Fc fusion)
chain: QLQLVESGGGLVQSGGSLRLSCAASGRTRSMYVMGWFRQAPGKEREFVGRIKWSGDTTYTSYADFVKGRFTLYGNQARNTVYLQMNSLKPEDTAVYYCAALPSDYDYRAASYGVDYWGKGTLVTVSS
notes: as for B1
B3: PVRIG-A117 (Fc fusion)
chain: EVQVVESGGGLVQAGGSLRLSCTASEHIYDLYIMGWYRQAPGKDRELVATITYTGSIYIADSVKDRFTISRGNAKNTVSLQMSGLKPEDTAVYYCNADPSGLGRKLYWGQGTQVTVSS
notes: as for B1
B4: PVRIG-A118 (Fc fusion)
chain: QVQLVESGGGLVQAGGSLRLSCAASETYFDLYVMGWYRQAPGKDRELVATITYTGSIKIVDSVKDRFTISRGDAKNTVSLQMSSLKPEDTAVYFCNADPSGLGRKVYWGQGTQVTVSS
notes: as for B1
B5: PVRIG-A15 (Fc fusion)
chain: QVQLVESGGGLVQAGGSLRLSCVASGRTFSANTMAWFRQAPGKEREFVAYTRWTDDNTDYASYADFVKGRFTAFRDNTRNTMYLQMNRLRPEDTAVYYCAAATTRGTYYSAGDYNSWGQGTQVTVSS
notes: as for B1
B6: PVRIG-A30 (Fc fusion)
chain: QVQLVESGGGLVQPGGSLRLSCAASGRTDSMNVMGWFRRAPGKEREFVARIKWNGDTTYTAYADFLKGRFTLYGAVARNRVYLQMNSLQPEDTAVYYCAAGEVSGSSYSPDYGMHYWGKGTLVTVSS
notes: as for B1

Columns and labels:
[1] = biological target: T1, cynomolgus monkey PVRIG (Novoprotein, …); assay: ELISA, coated cynomolgus monkey PVRIG
Method: (§1) The ELISA plate was pre-coated with 100 μL/well of 0.5 μg/mL human PVRIG-his (AcroBiosystems, Cat NO. PVG-H52H4) or cynomolgus monkey PVRIG (Novoprotein, Cat NO. C09B). […] A HRP substrate, TMB (Thermo, Cat NO. 34029) was added into wells after washing the plate again for color development. After adding a termination solution to terminate the reaction, the absorbance value was read by a microplate reader (MD i3×). An antibody binding curve was drawn with concentration of antibodies as the abscissa and the corresponding OD value as the ordinate. The EC50 value was calculated by using a Four Parameter Logistic Fit (GraphPadPrism9). The smaller the EC50 value, the stronger the ability of the antibodies binds to human or cynomolgus monkey PVRIG. The positive control antibodies are COM701-hIgG1 (Patent No.:US20180244774A1), COM701-hIgG4 (patent No.: US20180244774A1) and SRF813-hIgG1 (Patent No.:US20200040081A1); and the negative control antibodies are anti-HA HcAb-hIgG1 (Chengdu NB Biolab, Cat NO. NBR022), anti-CD38 HcAb-hIgG1 (in-house) and anti-Fluorescein-hIgG1 (in house).

[2] = biological target: T2, human PVRIG on FlpinCHO-PVRIG cells; assay: FACS, FlpinCHO-PVRIG cells; AUC of MFI curve relative to COM701-hIgG1
Method: (§2) The Ham's F12 (Gibico, 21127-022) complete medium containing 10% FBS was then added to terminate the digestion and acquire cell suspension. After counting with a cell counter (Beckman Coulter, Vi-CELL), an appropriate amount of cell suspension was centrifuged at 350×g to remove the supernatant, washed twice with PBS, stained with Zombie violet (Biolegend, 423114) and incubated at room temperature for 20 minutes. After incubation, the cells were added with staining buffer (2% FBS+PBS) to stop staining, centrifuged at 350×g to remove the supernatant, washed twice and resuspended with staining buffer to a density of 2×10⁶ cells/mL. The cells were plated into a 96-well plate (50 μL of cell suspension per well) for further use. The antibodies were diluted from the highest concentration of 46 nM (two-fold concentration) with staining buffer by 3.3-fold serial dilution. The diluted antibodies were added to the well containing 50 μL of cell suspension. The plate was placed on a microplate shaker at 400 rpm for 1 minute to fully mix the antibodies and cells, and then incubated at 4° C. for 30 minutes. After the incubation, the cells were washed twice with staining buffer (200 μL per well) and centrifuged at 350×g for 5 minutes to discard the supernatant. The PE goat anti-human IgG Fc antibody (ebioscience, 12-4998-82) was diluted 250 times with staining buffer, added into the washed wells (100 μL per well), mixed well, and stained at 4° C. for 30 minutes. After staining, the cells were washed twice with staining buffer, finally resuspended with 200 μL staining buffer and analyzed by flow cytometry (BD, Canto II). The stronger the signal, the stronger the ability of the antibodies binds to PVRIG. An antibody binding curve was drawn with concentration of antibodies as the abscissa and the corresponding Mean Fluorescence Intensity (MFI) as the ordinate. The AUC value of the curve was calculated by using a Four Parameter Logistic Fit (GraphPadPrism9). The stronger the AUC value, the stronger the ability of the antibodies binds to FlpinCHO-PVRIG and FlpinCHO-cyno PVRIG. […] The binding activity of the antibodies was normalized to the positive control COM701-hIgG1 and SRF813-hIgG1.

[3] = biological target: T3, cynomolgus monkey PVRIG on …; assay: FACS, FlpinCHO-cyno PVRIG cells; AUC of MFI curve relative to COM701-hIgG1
Method: as §2

[4] = biological target: T3, cynomolgus monkey PVRIG on …; assay: FACS, FlpinCHO-cyno PVRIG cells; AUC of MFI curve relative to SRF813-hIgG1
Method: as §2

[5] = biological target: T2, human PVRIG on FlpinCHO-PVRIG cells; assay: FACS, FlpinCHO-PVRIG cells; AUC of MFI curve relative to SRF813-hIgG1
Method: as §2

[6] = biological target: T4, human PVRIG-his (AcroBiosystems, Cat …); assay: ELISA, coated human PVRIG-his
Method: as §1

Binder	EC50 [1]	% AUC to COM701-hIgG1 [2]	% AUC to COM701-hIgG1 [3]	% AUC to SRF813-hIgG1 [4]	% AUC to SRF813-hIgG1 [5]	EC50 [6]
B1	0.0192 nM	123%	122%	157%	162%	0.0571 nM
B2	0.0443 nM	42.4%	38.6%	52.7%	57.4%	0.092 nM
B3	0.0418 nM	133%	128%	174%	181%	0.0528 nM
B4	0.0341 nM	153%	66.4%	80.4%	232%	0.0513 nM
B5	0.129 nM	36.3%	24.8%	29.1%	42.7%	0.208 nM
B6	0.093 nM	29.3%	28.7%	33.8%	34.4%	0.255 nM
